# Data as given in patent publication US7084111.
# Assays:
# Assay in all cases: cell-based or functional assay
# [1] = molecular target: mouse melanocortin-3 receptor (mouse) (UniProt P33033)
# [2] = molecular target: mouse melanocortin-5 receptor (mouse) (UniProt P41149)
# [3] = molecular target: mouse melanocortin-1 receptor (mouse) (UniProt Q01727)
# [4] = molecular target: mouse melanocortin-4 receptor (mouse) (UniProt P56450)
# Chain of mouse melanocortin-4 receptor (mouse) (P56450 whole entry): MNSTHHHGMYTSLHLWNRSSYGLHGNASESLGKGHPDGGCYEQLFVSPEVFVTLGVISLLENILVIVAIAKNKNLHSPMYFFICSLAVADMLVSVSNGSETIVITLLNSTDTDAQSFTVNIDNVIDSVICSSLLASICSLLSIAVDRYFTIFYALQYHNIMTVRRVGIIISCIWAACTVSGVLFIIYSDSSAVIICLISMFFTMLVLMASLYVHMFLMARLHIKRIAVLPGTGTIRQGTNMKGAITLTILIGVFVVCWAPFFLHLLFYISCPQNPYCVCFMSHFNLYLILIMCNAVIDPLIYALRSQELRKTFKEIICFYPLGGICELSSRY
# Chain of mouse melanocortin-3 receptor (mouse) (P33033 whole entry): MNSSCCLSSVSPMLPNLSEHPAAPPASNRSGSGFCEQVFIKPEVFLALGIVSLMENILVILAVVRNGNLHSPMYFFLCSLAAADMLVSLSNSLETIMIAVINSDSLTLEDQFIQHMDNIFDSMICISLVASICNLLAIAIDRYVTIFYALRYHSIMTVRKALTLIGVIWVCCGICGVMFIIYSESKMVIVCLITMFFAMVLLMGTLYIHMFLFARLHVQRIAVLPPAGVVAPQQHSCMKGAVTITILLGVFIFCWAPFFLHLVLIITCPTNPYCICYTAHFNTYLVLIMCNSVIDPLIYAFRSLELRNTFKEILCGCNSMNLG
# Chain of mouse melanocortin-1 receptor (mouse) (Q01727 whole entry): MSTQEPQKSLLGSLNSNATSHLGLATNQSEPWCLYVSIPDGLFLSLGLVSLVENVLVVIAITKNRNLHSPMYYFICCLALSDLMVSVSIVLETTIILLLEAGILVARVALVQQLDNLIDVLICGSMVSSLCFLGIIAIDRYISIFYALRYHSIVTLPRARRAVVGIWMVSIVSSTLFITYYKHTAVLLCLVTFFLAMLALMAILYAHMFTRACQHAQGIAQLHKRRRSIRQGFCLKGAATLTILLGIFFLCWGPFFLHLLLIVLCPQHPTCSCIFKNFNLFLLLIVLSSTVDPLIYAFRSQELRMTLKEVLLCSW
# Chain of mouse melanocortin-5 receptor (mouse) (P41149 whole entry): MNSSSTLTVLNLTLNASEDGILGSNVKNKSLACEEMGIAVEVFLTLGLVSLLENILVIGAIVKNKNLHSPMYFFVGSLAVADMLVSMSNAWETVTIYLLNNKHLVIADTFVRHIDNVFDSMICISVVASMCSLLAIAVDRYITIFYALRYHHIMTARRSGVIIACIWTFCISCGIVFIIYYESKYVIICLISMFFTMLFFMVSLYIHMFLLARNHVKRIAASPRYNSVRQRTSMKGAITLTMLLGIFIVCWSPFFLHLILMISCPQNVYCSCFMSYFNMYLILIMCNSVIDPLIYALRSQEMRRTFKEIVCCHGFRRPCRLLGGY
EC50 (agonist) [1] [nM],EC50 (agonist) [2] [nM],EC50 (agonist) [3] [nM],pA2 (antagonist) [4],Substance
0.098,0.071,–,–,NDP-MSH (peptide)
> 100000,> 100000,5120,6.8,hAGRP(109-118) decapeptide (from UniProt O00253 109-118)
–,–,0.02,–,MTII (peptide)
